Laboratory results from patent US20190194299A1 (Dana-Farber, published 2019).

T1: Spike (S) protein of live MERS-CoV EMC/2012 (wild type virus) (MERS-CoV, UniProt K9N5Q8 18-1353)
T1 sequence: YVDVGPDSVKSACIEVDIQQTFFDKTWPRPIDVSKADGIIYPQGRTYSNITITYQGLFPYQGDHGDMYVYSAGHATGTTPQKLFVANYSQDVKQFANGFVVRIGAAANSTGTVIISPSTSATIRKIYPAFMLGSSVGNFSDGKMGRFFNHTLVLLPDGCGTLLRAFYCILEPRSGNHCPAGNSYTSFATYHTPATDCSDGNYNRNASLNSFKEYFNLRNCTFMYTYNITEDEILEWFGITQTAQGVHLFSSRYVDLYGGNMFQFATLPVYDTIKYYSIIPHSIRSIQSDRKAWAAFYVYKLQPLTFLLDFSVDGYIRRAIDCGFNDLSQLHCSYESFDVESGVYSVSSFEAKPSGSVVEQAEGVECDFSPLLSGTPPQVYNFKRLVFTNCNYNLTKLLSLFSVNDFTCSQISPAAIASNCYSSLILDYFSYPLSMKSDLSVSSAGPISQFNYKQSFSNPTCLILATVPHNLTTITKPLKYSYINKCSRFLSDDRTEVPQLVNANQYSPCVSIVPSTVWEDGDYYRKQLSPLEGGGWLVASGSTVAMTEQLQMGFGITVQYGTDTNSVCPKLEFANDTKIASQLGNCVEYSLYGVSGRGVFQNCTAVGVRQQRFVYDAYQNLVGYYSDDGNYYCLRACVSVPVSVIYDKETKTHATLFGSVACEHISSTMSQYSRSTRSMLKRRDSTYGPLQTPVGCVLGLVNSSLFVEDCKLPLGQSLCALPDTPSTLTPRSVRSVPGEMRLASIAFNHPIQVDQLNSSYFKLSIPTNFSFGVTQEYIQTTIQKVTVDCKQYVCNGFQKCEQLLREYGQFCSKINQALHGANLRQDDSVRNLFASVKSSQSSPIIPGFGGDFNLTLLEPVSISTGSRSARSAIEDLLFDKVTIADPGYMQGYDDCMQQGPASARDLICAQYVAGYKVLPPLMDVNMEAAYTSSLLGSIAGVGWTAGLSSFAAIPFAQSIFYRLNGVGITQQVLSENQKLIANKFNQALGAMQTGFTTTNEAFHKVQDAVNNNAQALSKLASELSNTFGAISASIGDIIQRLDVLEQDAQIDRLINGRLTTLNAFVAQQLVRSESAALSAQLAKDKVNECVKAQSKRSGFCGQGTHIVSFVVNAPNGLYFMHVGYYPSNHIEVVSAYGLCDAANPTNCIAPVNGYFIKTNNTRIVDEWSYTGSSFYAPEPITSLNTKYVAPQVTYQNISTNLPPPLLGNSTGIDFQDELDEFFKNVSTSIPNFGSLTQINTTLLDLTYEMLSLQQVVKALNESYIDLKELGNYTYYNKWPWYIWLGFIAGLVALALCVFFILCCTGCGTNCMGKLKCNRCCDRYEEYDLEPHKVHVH


Molecular target: T1, Spike (S) protein of live MERS-CoV …
Assay: cell-based or functional assay

Row | Binder | IC50 (PRNT50, live wt. virus)
1 | 3A1 scFvFc (scFv, V domains shown) VH: QVQLVQSGAEVKKPGSSVKVSCKASGGTFSSYAVSWVRQAPGQGLEWVGRIIPIFGKANYAQKFQGRVTITADKSTSTAYMELSSLRPEDTAVYYCARDQGISANFKDAFDIWGQGTTVTVSS VL: ETTLTQSPATLSVSPGERATLSCRASESVGSNLAWYQQKPGQAPSLLIYGASTRATGIPDRFSGSGSGTDFTLTISSLQSEDFAAYYCQQYNNWPLTFGPGTKVEIK | 1.46 µg/mL
2 | 3A1 IgG1 (antibody, V domains shown) VH: QVQLVQSGAEVKKPGSSVKVSCKASGGTFSSYAVSWVRQAPGQGLEWVGRIIPIFGKANYAQKFQGRVTITADKSTSTAYMELSSLRPEDTAVYYCARDQGISANFKDAFDIWGQGTTVTVSS VL: ETTLTQSPATLSVSPGERATLSCRASESVGSNLAWYQQKPGQAPSLLIYGASTRATGIPDRFSGSGSGTDFTLTISSLQSEDFAAYYCQQYNNWPLTFGPGTKVEIK | 4.5 µg/mL
3 | 1E9 scFvFc (scFv, V domains shown) VH: QVQLVQSGGGVVQPGRSLRLSCVASEFTFNTYGMHWVRQAPGKGLEWVAAISYDGTKKFYADSLKGRFTISRDNSKNTLYLQMNSLRSEDTAVYYCARSGDSDAFDIWGQGTMVTVSS VL: SYELTQPPSVSVSPGQTATITCSGDELGDKFAFWYQQKPGQSPVLVIYQDSKRPSGIPERFSGSNSGNTATLTISGTQALDEADYYCQAWDSNSYVFGTGTKVTVL | 3.21 µg/mL
4 | 3B12 scFvFc (scFv, V domains shown) VH: QVQLVQSGAEVKKPGSSVKVSCKASGGTFSSYAISWVRQAPGQGLEWMGGIIPIFGTANYAQKFQGRVTITADKSTSTAYMELSSLRSEDTAVYYCARASYCSTTSCASGAFDIWGQGTLVTVSS VL: not shown | 1.25 µg/mL
5 | 3B11 IgG1 (antibody, V domains shown) VH: QVQLVQSGAEVKKPGSSVKVSCKASGGTFSSYAISWVRQAPGQGLEWMGGIIPIFGTANYAQKFQGRVTITADKSTSTAYMELSSLRSEDTAVYYCARVGYCSSTSCHIGAFDIWGQGTTVTVSS VL: ETTLTQSPGTLSLSPGERATLSCRASQSVSSSIAWYQQKPGQAPRLLMFDSSTRATGIPDRFSGSGSGTDFTLNISSLEPEDFAVYYCQQYSSSPYTFGQGTKLEIK | 3.5 µg/mL
6 | 1F8 scFvFc (scFv, V domains shown) VH: EVQLVQSGAEVKEPGSSVKVSCKASGGTFGSYAINWVRQAPGQRLEWMGWIDAANGNTKYSQKFQGRVTITGDTSASTAYMELSSLRSEDTAVYYCARDRWMTTRAFDIWGQGTMVTVSS VL: QPVLTQPPSASGTPGQRVTISCSGSSSNIGSNYVFWYQQLPGMAPKLLISRNNQRPSGVPDRFSGSKSGTSASLAISGPQSEDEADYYCAAWDDSLRGPVFGGGTRVTVL | 6.27 µg/mL
7 | 1F8 IgG1 (antibody, V domains shown) VH: EVQLVQSGAEVKEPGSSVKVSCKASGGTFGSYAINWVRQAPGQRLEWMGWIDAANGNTKYSQKFQGRVTITGDTSASTAYMELSSLRSEDTAVYYCARDRWMTTRAFDIWGQGTMVTVSS VL: QPVLTQPPSASGTPGQRVTISCSGSSSNIGSNYVFWYQQLPGMAPKLLISRNNQRPSGVPDRFSGSKSGTSASLAISGPQSEDEADYYCAAWDDSLRGPVFGGGTRVTVL | 4.05 µg/mL
